The results in this text go back to a protein production outcome set (Wang et al. 2014).

The nature of the series: label from the status in PepcDB records.

As to “MRGLSLSPVVLPEVRREAGVELRKARLEDVDAIYWLIRYWAEKGLMLVRSHSHLYENIRDFWVLEDEDGQIVGTVALHVLWRDLAEIRGLAVHPTRQGQGLGRWLVLGAEREARDLGLPRVFAWTLQVNFFRALGYRVTSREALPPKVWSECNACPFYENCREIAVVKEFSPGASGG”, the protein production entry is listed as “failed”.

On to “MRGSVPSVREIETLLSQLPWRQFQSPRVHLEQYTTPVHLAARIAHHVALCIDEDERRSVQAVDLGTGTGILALALCLAGLNHVLGVDVDSEALELARANAAALWELCPQSVGAVLEFAAVDVQPNSLALAPKSFDVAVLNPPFGTRQRSADIAFLDVACHLSRRFVYSLHKSSTRSYLSRRLERFGCTAQVYARLRFDLPATYVFHRERAVDIDVDLWQIEVKR”, for which the protein production result was “not failed”. Take “MRGYYDEISFDVNTTAKKMHLFLMRSIASYDVTPEQWSVLEGIEANEPISQKEIALWTKKDTPTVNRIVDVLLRKELIVREISTEDRRISLLSLTDKGRKETTELRDIVEASCEKMFAGVTRTDLEQFTAILKNISTNIE”: the protein production result is “not failed”. On to “MRIAILGGGVAGSTLAYLLSRINYEVTIFDINQHYVKPCGDIVPNIYTPPFNWKETFGIRRFSFYIDGEKIYDVEYRHTKWLVIDKWKWINDMRKSSKVIVTHDNNAKEFDYVIDSRGPYPMDREVVYTTRAIIETEEFDDEAILEFNTRYTGFYWIFPSKENEYNIGAGFLEYKNSKELLNYYLRKRFKNFEVKDIRGAPISIGSVKNKKLRIGEARGLVFPLSGEGIRPSAISAEYAFEAIHKEKDLDGFLNEKLSIIEKRIKIQKMLLDLYRYSSLNLRKTFMRIFFKNEVLIDTYLEDKMDLNGIIESLKSVRANGGIIRKFEEQERLEHHHHHH”, for which the protein production entry is “failed”. For the sequence “MRIDAHHHLWDLSVRDQPWTSDVPALRRTFTAAELRPALERNAIDATVVVQTIAVPQETPELLALTCTDPQVRAVVGWTDLTEPGIADRLAELREQPGGSALVGIRHGIQDETDPQWPARPEVRRGITSVAAAGLVYDLLVRPDQLPSAVRAVRELPDVRFVLDHAGNPVVSPDGLVSWTALLTDLAECPNVTVKLSGLVTRTGGDPAAALRPYADVLFETMGPDRLMYGSDWPVCLLAAEYDEVVAVAESLTEELSADEREAVFGTTAARWYGIPS”, the protein production result is given as “failed”.

Turning to “MRIETDRLVIRDFEERDAERLYDYLANPPVRCFLDEKINSYDEALRKIRERQGQSDQGDFYAVCLKNAEWLIGEVFWVKEEPDTYSIGWNFNLNYGGKGYATEAVKAAIEELFRGGARRIYAYVEEDNLPSQRLCDRLGMRREGLFLEFISFINNPDGSPRYENTYQYAILKREWLGEGKAT”, the protein production result is on record as “failed”. “MRIFKALLKMEFLLTKRQLANLIMAIGMPVAFFLFFSGFMGEGLTKAIEAIYVRNYMITMAGFSSLSFAFFTFPFSMKDDQLSNRMQLLRHSPVPMWQYYLAKIIRILFYYCLAITVVFLTGHILRQVSMPIEQWMQSFLLLLGGATCFIPFGLLVSYFKNTELMSMVANICYMSLAVLGGMWMPITMFPKWLQALSKLTPTYHLTQVILSPFANSFAGFSLIILIGYGIIMLVIAYLLSQKRHSI”: the protein production entry is reported as “failed”. As for “MRIKLIIVEGKTDESFFKVLLEKLYGFREAKKLTPEFPIGKWGFRIGEHPLVLEKDNIALVIIHAEGKQRIPKVLKSVLDSVKLGLLNVEEVYVVRDVDEGNDVFEWVLSFLREREVRVDNGAIVTEGVKIYPYGMGNLTLNEPFVKEKKELELSLAYLAKLDGILEKYRGSMRALSQDKGDKLTPKDVMHILSIANDYTGDCLSGLYEKYIGIMIHRNRELLIRFLSEVNLLPLLERMVG”, the protein production result is given as “not failed”. In the case of “MRILFVGPPLYGLLYPVLSLAQAFRVNGHEVLIASGGKFAQKAAEAGLVVFDAAPGFDSEAGYRRQEALRKENNIGTKMGNFSFFSEEMTDPLVAFAGQWRPDLIVYPPLGVVGPLIAAKYDIPVVMQTVGFGHTPWHIKGVTKSLSNAYRRHGVSAPPRDLAWIDVTPPSMSILQNDGEPVISMQYVPYNGGAVWEEWWERTPDRKRLLVSLGTVKPMVDGLDLISWVMDSAGEVDAEIILHLPANARSDLRSLPPNVRLVDWLPMGVFLNGADGFIHHGGAGNTLTALHAGIPQIVFGQGADRPVNARAVVERGCGIIPGKSGLTSSMINTFLGNRALREASQEVAAEMAAQPCPTEVAKKLIAMLQHG”, the protein production result is on record as “failed”. As for “MRILLATDGSPQARGAEALAEWLAYKLSAPLTVLFVVDTRLARIPELLDFGALTVPVPVLRTELERALALRGEAVLERVRQSALAAGVAVEAVLEEGVPHEAILRRARAADLLVLGRSGEAHGDGFGGLGSTADRVLRASPVPVLLAPGEPVELEGALLGYDASESAVRALHALAPLARALGLGVRVVSVHEDPARAEAWALEAEAYLRDHGVEASALVLGGDAADHLLRLQGPGDLLALGAPVRRLVFGSTAERVIRNAQGPVLTAR”, the protein production result is given as “failed”.

Take “MRILSIIRIIGILVMCFSGTMLVPAFVALIYGDGGGKAFMQAFMLSLIAGTLLWWPCHHHKQELRSRDGFLIVVAFWLVLGSLATLPLLLFDSPHLTIASAVFEAFSGLTTTGATVMTGLDNLPKSILFYRQFLQWLGGMGIIVLAVAIIPLLGIGGTQLYRAESSGPLKDQKSLPKISEVAKALWIIYASLTVLCAIAYWLSGMNLFDAIGHSFSTISNGGFSTHDASIGYFNQASIYWVTTIFMLIGGVNFSLHISAFLALGKRNIWRNYWKDPEFRFFLTMQIIFIGIVSLSLYGYGLVSDINEAVTKGALQLTSMSMTAGYTIFDIDNLPPFIGLLLVISAVIGGCGGSTTGGLKAIRTLILWKQIDRELHSLIHPNLVQPIRIGKNRLAPRMIESIWAFFIIFILVYWGCVFAVILCGMNTFDAMGAVFATLTNAGPGLGFIHESFIGVPESAKLVFSFAMICGRLEMFSLIVLFIPSYWKK”: the protein production result is “failed”.

On to “MRISAKKPRPRPIFALCAPYPEAQPQEAEVRVRTSILAFVLAAVSTIAGAQDSGLTSLETTDAGRSWLAVGRLDIDGTGFCTGALIAPDLVLTAAHCLYDKTTGQRIDPARIEFLAGWRRGRASAYRRVARAVHHPDYLYEGAVTAERVRNDLALLKLSQPIRNTTVVPFETGNRPMRGDAVQVVSYAHDRAEAPSLQEACAVMARQQGVLVMSCDVDFGASGSPVFSLSDSTPRIVSVVSAKAEVDGARVALGTSLDDTLTFLMGELDSHKRAEIPTVPRVNRLSASGQGSASGAKFVRP”, for which the protein production entry is given as “failed”. “MRITVMTAGEQIITLDVDSQETVENVKALLEVESNVPIQQQQLLYNGNEMGNSDKLSALGVKDDDLLMMMVSNASSGSATSAAGNDLGMNPDGSALNPAAFQQHIRGDSNLMGQLFQNDPELAQVISGSDLNKLQDVLRARHRQRSVLQRQKEEELALLYADPFDVEAQRKIEAAIRQKGIDENWEAALEHNPEGFARVIMLYVDMEVNGVPLKAFVDSGAQSTIISKSCAERCGLLRLMDQRYKGIAHGVGQTEILGRIHVAPIKIGNNFYPCSFVVLDSPNMEFLFGLDMLRKHQCTIDLKENVMTVGGGEVSVPFLQEKDIPSRFLDEERVPNDASSSGATVPSGFTEKKNNTVANPTSQQPKRQNTSEGPEFEAKIAKLVELGFSRDSVIQALKLFEGNEEQAAGFLFGG”: the protein production entry is “failed”. On to “MRIYLFLNKNYKIFILFLILILNSKLAYSQRLIRIGKEEMKNKNYIQAIETLSDAIKKYPKVQLGYYFLSIAYRENNQLTEAEGALLDGIAVGGEIDYILYYELGNIMFNRGEGYYPLAIKYYSNSIKSRPNYDSALLNRANAYVQQGKITSKEKEYQKAWDSYTMAIHDYSQFITLRSKTEKKDSILLIISYLRNEKINLEQLDKSLKGRTEHIVYAKEDKNQILKDSFKDNLETNSLIELEKLNWQEELYIDE”, for which the protein production result is recorded as “failed”. For the sequence “MRIYLIGFMCSGKSTVGSLLSRSLNIPFYDVDEEVQKREGLSIPQIFEKKGEAYFRKLEFEVLKDLSEKENVVISTGGGLGANEEALNFMKSRGTTVFIDIPFEVFLERCKDSKERPLLKRPLDEIKNLFEERRKIYSKADIKVKGEKPPEEVVKEILLSLEGNALGG”, the protein production entry is on record as “not failed”.

“MRKDETSNTSPDISAAQPASALRYHLRPPRRNDGAAIHQLVSECPPLDLNSLYAYLLLCEHHAHTCVVAESPGGRIDGFVSAYLLPTRPDVLFVWQVAVHSRARGHRLGRAMLGHILERQECRHVRHLETTVGPDNQASRRTFAGLAGERGAHVSEQPFFDRQAFGGADHDDEMLLRIGPFTHPPH”: the protein production result was “failed”.
